Results published in US20040214282A1 (BOARD OF TRUSTEES OF THE UNIVERSITY OF ARKANSAS, published 2004).

Molecular target: T1, recombinant I-domain of α2 integrin subunit (human, UniProt P17301 169-366)
T1 construct: domain: I-domain; Expressed from pQE30 and purified by Ni2+-chelating chromatography; also called α2-I domain
T1 sequence: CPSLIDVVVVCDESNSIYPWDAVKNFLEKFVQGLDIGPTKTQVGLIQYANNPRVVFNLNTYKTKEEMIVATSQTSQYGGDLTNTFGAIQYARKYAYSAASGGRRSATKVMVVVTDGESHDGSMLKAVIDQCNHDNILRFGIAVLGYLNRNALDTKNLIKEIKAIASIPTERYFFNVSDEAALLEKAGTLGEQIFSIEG
Assay: SPR (BIACORE 3000), P176 immobilized on a CM5 chip, α2-I as analyte, 1 mM MgCl2; Scatchard analysis of the equilibrium responses

B1: recombinant P176 (Scl1.41 recombinant protein) (other)
chain: EDSETATARTKLLEKLTELRSQSQDRVPQTSDITQAYTLWGTSYDSVELYKYLQQIEEYLQKQKYHEEQWKKEITDGLKSGALRGEKGEAGPQGEKGLPGLTGLPGLPGERGPRGPKGDRGETGAQGPVGPQGEKGEAGTPGKDGLRGPQGDPGAPGKDGAPGEKGDRGETGAQGPVGPQGEKGEAGTPGKDGAPGEKGEKGDRGETGATGAQGPQGEAGKDGAQGPVGPQGEKGETGAQGPAGPQGEKGETGAQGPAGPQGEAGQPGEKAPEKSPEVTPTPEMPEQPGEQAPEKSKEVTPAPEKWSHPQFEK
notes: Expressed in E. coli from pSL176 (scl1.M41 allele, GenBank AY452037); also called Scl P176
- Kd: 17 nM
